Literature values in article PMC7508936.

Target: galectin-1 (Homo sapiens) (UniProt P09382)
UniProt P09382, sequence (P09382 2-135): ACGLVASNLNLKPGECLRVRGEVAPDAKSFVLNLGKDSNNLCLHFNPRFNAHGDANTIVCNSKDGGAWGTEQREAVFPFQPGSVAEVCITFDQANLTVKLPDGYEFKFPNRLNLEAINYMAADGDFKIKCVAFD

Kd: 130 nM
Substance: PSG1 (from UniProt P11464)
